Columns and labels:
MDC1 = MDC1 (UniProt Q14676); assay: biotin-peptide pull-down, Western blot; conditions: reference: unphosphorylated S139 peptide; sites S139
RNF8 [1] = biological target: RNF8 (UniProt O76064); assay: biotin-peptide pull-down, LC-MS/MS; conditions: reference: unphosphorylated T752 peptide; sites T752
Pellino 2 (PELI2) = Pellino 2 (PELI2) (UniProt Q9HAT8); assay: biotin-peptide pull-down, LC-MS/MS; conditions: reference: unphosphorylated T752 peptide; sites T752
Pellino 1 (PELI1) = Pellino 1 (PELI1) (UniProt Q96FA3); assay: biotin-peptide pull-down, LC-MS/MS; conditions: reference: unphosphorylated T752 peptide; sites T752
[2] = biological target: Pellino 2 (PELI2) FHA domain, 1-275 (UniProt Q9HAT8); assay: biotin-peptide pull-down, stained gel
RNF8 [3] = biological target: RNF8 (UniProt O76064); assay: biotin-peptide pull-down, Western blot
[4] = reference: unphosphorylated T752 peptide, sites T752
[5] = reference: unphosphorylated T719 peptide, sites T719

H2AX (from UniProt P16104) pS139 peptide
binding against the reference (MDC1): stronger

MDC1 743-757 (from UniProt Q14676) pT752 peptide
binding against the reference (RNF8 [1]): gained
binding against the reference (Pellino 2 (PELI2)): gained
binding against the reference (Pellino 1 (PELI1)): gained
binding against the reference [2, 4]: gained
binding against the reference (RNF8 [3]; [4]): stronger

MDC1 (from UniProt Q14676) pT699 peptide
binding against the reference (RNF8 [3]; reference: unphosphorylated T699 peptide, sites T699): stronger

MDC1 (from UniProt Q14676) pT719 peptide
binding against the reference [2, 5]: gained
binding against the reference (RNF8 [3]; [5]): stronger

MDC1 (from UniProt Q14676) pT765 peptide
binding against the reference (RNF8 [3]; reference: unphosphorylated T765 peptide, sites T765): stronger

Source: article PMC11884936, “MDC1 mediates Pellino recruitment to sites of DNA double-strand breaks” (Life Science Alliance, 2025)
